Source: paper PMC3268006 (Journal of Molecular Biology, 2011)

Molecular target: matriptase (MT-SP1), human protease domain (human, UniProt Q9Y5Y6)
Assay: steady-state enzyme inhibition kinetics

Chain of matriptase (MT-SP1), human protease domain (Q9Y5Y6 615-855): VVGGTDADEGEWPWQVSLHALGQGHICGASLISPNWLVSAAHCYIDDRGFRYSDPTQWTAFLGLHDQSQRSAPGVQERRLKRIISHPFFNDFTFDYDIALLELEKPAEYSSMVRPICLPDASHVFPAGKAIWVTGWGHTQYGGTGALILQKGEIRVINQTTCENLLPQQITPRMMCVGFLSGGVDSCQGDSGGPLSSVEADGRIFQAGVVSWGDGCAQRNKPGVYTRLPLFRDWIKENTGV

Binder	Ki [nM]
Fab A11 H R100aA (Fab, V domains shown) VH: EVQLVQSGGGLVKPGGSLRLSCAASGFTFSSYAMSWVRQAPGKGLEWVSAISGSGGSTYYADSVKGRFTISRDNSKNTLYLQMSSLRAEDTAVYYCVKDLGIAAARFVSGAFDIWGQGTMVTVSS VL: EIVLTQSPGTLSLSPGERATLSCRASQSVSSSYLAWYQQKPGQAPRLLIYGASTRATGIPARFSGSGSGTDFTLTINSLEPEDFAVYYCQQRSNWPPGYTFGQGTKVEIT	1.5
Fab A11 H R100bA (Fab, V domains shown) VH: EVQLVQSGGGLVKPGGSLRLSCAASGFTFSSYAMSWVRQAPGKGLEWVSAISGSGGSTYYADSVKGRFTISRDNSKNTLYLQMSSLRAEDTAVYYCVKDLGIAARAFVSGAFDIWGQGTMVTVSS VL: EIVLTQSPGTLSLSPGERATLSCRASQSVSSSYLAWYQQKPGQAPRLLIYGASTRATGIPARFSGSGSGTDFTLTINSLEPEDFAVYYCQQRSNWPPGYTFGQGTKVEIT	180
Fab A11 H R100bK (Fab, V domains shown) VH: EVQLVQSGGGLVKPGGSLRLSCAASGFTFSSYAMSWVRQAPGKGLEWVSAISGSGGSTYYADSVKGRFTISRDNSKNTLYLQMSSLRAEDTAVYYCVKDLGIAARKFVSGAFDIWGQGTMVTVSS VL: EIVLTQSPGTLSLSPGERATLSCRASQSVSSSYLAWYQQKPGQAPRLLIYGASTRATGIPARFSGSGSGTDFTLTINSLEPEDFAVYYCQQRSNWPPGYTFGQGTKVEIT	180
Fab S4 (Fab, V domains shown) VH: EVQLVQSGAEVKKPGSSVKVSCKASGGTFSSYAISWVRQAGQGLEWMGGIIPIFGTANYAQKFQGRVTITADESTSTAYMELSSLRSEDTAVYYCARTFHIRRYRSGYYDKMDHWGQGTLVTVSS VL: VLTQPPSVSGAPGQRVTISCSGSSSNIGSNYVSWYQQKPGTAPKLLIYDNNQRPSGVPDRFSGSKSGTSAVLAITGLQSEDEADYYCQSRDISQYVFGGGTKLTVL	1
Fab S4 H R100bA (Fab, V domains shown) VH: EVQLVQSGAEVKKPGSSVKVSCKASGGTFSSYAISWVRQAGQGLEWMGGIIPIFGTANYAQKFQGRVTITADESTSTAYMELSSLRSEDTAVYYCARTFHIRRYASGYYDKMDHWGQGTLVTVSS VL: VLTQPPSVSGAPGQRVTISCSGSSSNIGSNYVSWYQQKPGTAPKLLIYDNNQRPSGVPDRFSGSKSGTSAVLAITGLQSEDEADYYCQSRDISQYVFGGGTKLTVL	93
Fab S4 H R100bK (Fab, V domains shown) VH: EVQLVQSGAEVKKPGSSVKVSCKASGGTFSSYAISWVRQAGQGLEWMGGIIPIFGTANYAQKFQGRVTITADESTSTAYMELSSLRSEDTAVYYCARTFHIRRYKSGYYDKMDHWGQGTLVTVSS VL: VLTQPPSVSGAPGQRVTISCSGSSSNIGSNYVSWYQQKPGTAPKLLIYDNNQRPSGVPDRFSGSKSGTSAVLAITGLQSEDEADYYCQSRDISQYVFGGGTKLTVL	110
